Data set [1] concerns pigskin used for simulated human skin.
Text: Freezing pigskin used for simulated human skin was thawed; sites of pesticide application were cleaned and disinfected after thawed;
The conditions of data set [2]: Journal of Pharmaceutical Sciences, 1998, 87, 922-925; cited from earlier work.

For bovine serum albumin, the penetration of skin entry in data set [1] is “could penetrate the skin”. Consider `O=C(O)CN(CC(=O)O)Cc1cc2c(cc1O)Oc1cc(O)c(CN(CC(=O)O)CC(=O)O)cc1C21OC(=O)c2ccccc21` [calcein], for which the “transdermal permeability speed, micro-needle versus traditional transdermal drug delivery” value in data set [2] is “increased by four orders of magnitude”.

These data come from patent US20150030642A1, “POLYMER MICRO-NEEDLE ARRAY CHIP, PREPARATION PROCESS AND USE THEREOF” (Technical Institute of Physics and Chemistry of the Chinese …, priority 2012, published 2015).
